Data reported in article PMC4094350.
Like-named read-outs stand apart in the source and are kept apart here.

Key:
[1] = target: GFP-Paxillin (UniProt P49023); assay: FRET or BRET
[2] = target: GFP-Paxillin (UniProt P49023); assay: FRET or BRET; remark: listed apart in the source
[3] = target: GFP-Paxillin (UniProt P49023); assay: FRET or BRET; remark: listed apart in the source
[4] = target: FAK FAT (UniProt Q05397); assay: ITC; conditions: cited from earlier work
Sequence of UniProt Q05397 (Q05397 914-1045): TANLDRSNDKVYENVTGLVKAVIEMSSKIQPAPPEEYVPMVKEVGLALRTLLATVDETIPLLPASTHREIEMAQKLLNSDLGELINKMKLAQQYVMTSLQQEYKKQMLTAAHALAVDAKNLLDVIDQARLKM

Row | Substance | Kd [1] [nM] | Kd [2] [nM] | Kd [3] [nM] | Kd [4] [nM]
1 | FAT-mCherry (from UniProt P34152 1-1052) (domain or fragment) | 367 | 209 | 209 | –
2 | paxillin LD peptide LD motif (from UniProt P49023) | – | – | – | 10000
